Assay results taken from the DeepSol protein solubility set.

Assay: soluble on expression in E. coli; label from the status in PepcDB or PDB records

| Sequence | soluble on expression in E. coli |
| --- | --- |
| MKVVGLDLGGTKIAAGVFDGKRLLSKVVVPTPKEGGERVAEALAEAAERAEREAGVRGEAIGLGTPGPLDFRRGVIRFAPNIPGVQDFPIRRILEEATGRPVFLENDANAAALAEHHLGAAQGEESSLYLTVSTGIGGGVVLGGRVLRGERGQGGELGHLTLLPGGPACGCGLEGCLEALAAGRALERDATYAFQRPVDTRELFRLFQAGDPKAERLVLQAARYVGIGLASLVKAFDPGVVVLGGGVALNAPEGYWEALLEAYRRYLQGWEAPPLRRARLGAEAGLLGAALTAYLEVKDGSG | soluble |
| MGSDKIHHHHHHMLHNTNQPQISRQMNELEAQCGGRLFNRTGRGVELTDLGQHLLPKIRSWLNVTDQLNNEILHSTDTPIGTVRIASLPSTAHPLLSTLYKVLQEKYPLIKLSVREGQGVHLEKWLEDGSVDLAILYRFNPTPKQGDIYLTQADTYLVGCEGDALTQASEVDFKAINQLPLVTFCRPSNWRNFLDHMAYENGVELNIVFEADSISLQTHLVSESRMYTMLGPQALKKASQYTSIQAAKIINPALKRYISLSISKHGYLTPACKAVMEEIRNLADLL | not soluble |
| MALSAEGSSGGSRGGSPKAEAASVPSWPQILGRLTDNRDLARGQAAWAMDQIMTGNARPAQIAAFAVAMTMKAPTADEVGELAGVMLSHAHPLPADTVPDDAVDVVGTGGDGVNTVNLSTMAAIVVAAAGVPVVKHGNRAASSLSGGADTLEALGVRIDLGPDLVARSLAEVGIGFCFAPRFHPSYRHAAAVRREIGVPTVFNLLGPLTNPARPRAGLIGCAFADLAEVMAGVFAARRSSVLVVHGDDGLDELTTTTTSTIWRVAAGSVDKLTFDPAGFGFARAQLDQLAGGDAQANAAAVRAVLGGARGPVRDAVVLNAAGAIVAHAGLSSRAEWLPAWEEGLRRASAAIDTGAAEQLLARWVRFGRQILEHHHHHH | soluble |
| MGSDKIHHHHHHAAVLSGCEFNEDFCIRNGELVAWCDFSGIRETPPVPEERHIIAFPSGMDIPSGEQMTFTQDTLRQSIPQGEYQFLFYTGNYEVSDIRDYHEARLMARTDTLEGEVYISGVQKFCCSAGFSQRLEYQRPKRVPITPSAFVQRLNIQINVSGNITPLAGLQGTLTGISTGRYLVSRERTGNASVTSLFSRKPETDRWKTSLYAFGFNPAAENILSVKIEMDGKDSVFNEEQKVDLTPYLRGFDSDELSLELDLHIGKELTIGEPVVIPDWEDIPETELPNYN | not soluble |
| GMKCNDKLAPFEVFDHVVNKKLSFRHVTMDDVDMLHSWMHEEHVIPYWKLNIPLVDYKKHLQTFLNDDHQTLMVGAINGVPMSYWESYWVKEDIIANYYPFEEHDQGIHLLIGPQEYLGQGLIYPLLLAIMQQKFQEPDTNTIVAEPDRRNKKMIHVFKKCGFQPVKEVELPDKIGLLMKCEQNVFEKRWSDWKMNKF | soluble |
| LLWPNYMRPLPAFSILQFDPLTRPGGALRVERDTPVESRPVGEVACRFRTCYATEVLPLVLEALNYSVTGEGALLGLRLAMNCDGHLGELGLSRLRLHLAGERYISQMLYLCLLRNLESIQLIPLDAHGRPLDGVAGKPMSFRLTGERVQPVGFAEDEALIPYPLNTFRGYRYLQEYFAFQDKFLFVDVDGLDLLGALPEETLKQVRGLELRFDIRKSGIQRLHPTLENVKLYCTPVANLFRHDALPIRLDGKQDEYLLMPAEYSLEDCGVFSVEGVTGWRPGGLGYQAYVPFESFEHDPSFDVPEARPHYSVRQRTSLLHDGLDTYLSFGIRHPEQIETLSVELTCTNQNLPQRLRLGDICVACEGTPEFLGFRNITPATPSYAPPLNRDFLWKLISNMSLNYLSLANVDALKVILETYDLPRYYDQHAAKVSKRLLGGLKAVRHEHVDRLHRGLPLRGLRTELTIDPEGYIGEGDLFVFASVLNEFFALYASINSYHELRVRSTQGDVYQWKPRMG | not soluble |
| MPKDELPNHNCIKHLRSVVQQQQSRIAELEKTRAEHKHQLAEQKRDIQLLKAYMRAIRSVNPNLQNLEETIEYNEILEWVNSLQPARVTRWGGMISTPDAVLQAVIKRSLVESGCPASIVNELIENAHERSWPQGLATLETRQMNRRYYENYVAKRIPGKQAVVVMACENQHMGDDMVQEPGLVMIFAHGVEEI | not soluble |
| SGQTALAGGSSSTPTPQALYPDLSCPEGLEELLSAPPPDLGAQRRHGWNPKDCSENIEVKEGGLYFERRPVAQSTDGARGKRGYSRGLHAWEISWPLEQRGTHAVVGVATALAPLQTDHYAALLGSNSESWGWDIGRGKLYHQSKGPGAPQYPAGTQGEQLEVPERLLVVLDMEEGTLGYAIGGTYLGPAFRGLKGRTLYPAVSAVWGQCQVRIRYLGERRAEPHSLLHLSRLCVRHNLGDTRLGQVSALPLPPAMKRYLLYQ | not soluble |
| MLIVGEDFGMRVSVLASSSSGNATYIETPGHKVLVDAGLSGKKIETLMQSIGRDLTDVDSVFITHEHSDHVRGVGVLARRYPKLSVYANAKTFAALPKSVGKIPEDQLRLFDMGATLTLGDLDVESFGVSHDAAAPQFYQFHHDGKTFTILTDTGYVSDRVAGTIRDADAYVMECNHDLEMLRTGPYPWPLKQRILGDQGHLSNEDGADALMDVIGLRTKRIYLGHLSPHNNNKPLAHLTVASLLAQQGLAVDHDFRIYDTDPAVADPLFVVLEHHHHHH | not soluble |
| MGSDKIHHHHHHMYPRYSEINVKEALSDTPVVFVMGPRQAGKTTLVKSLIMDMGSENWTYITLDDQAQFEIAQADPVGFVRNLPSTRIALDEVQRLPELFVSIKQAVDEQRSPGRFLLTGSANALLLPRLSDSLAGRMESVRLMTLSECEIQGRQPSFLIKLLREEAPSTQDIRVRDHLLQRLVTGCFPEPLQRANERRRQAWYQQYTSTLIQRDIRDLTHIDHPDLMAKLLKLTAFYAGKLVNLTELGGKLGLDRLTIKKYMALLEQLFLVEQLPAWHSNEYKRLVKTPKLHPVDTGMMCAVRGLNQERLLKQPGDFGLVLESFVYNELRKQSVWIDEPLNFYHYRDKDKVEVDVVIENTMGDCFAIEIKAAATLNTKDFTGLKRFQSVAGDRFKIGVLLYDGDHTTAFGDNLYAVPVGALWS | not soluble |
| MANLGETLKQLRKQRRWTQEQLAEQLNVSRSQISKWENGSLLPDVQSLEKLCQLFNISADFLLGGETRQRELLREVTDMYGTADVHETVLAALDYLLHNQEMSEAMYALAKLPDKKRKHVETMIMTIVKECSELI | not soluble |
| MSLKILFAVSECTPFVKSGGLADVAGALPKALARLGNEVAVMLPKYSQIPEPWKKRMKKQAECTVAVGWRQQYCGIEHMAENDVNYYFIDNEYYFNRDSLYGHYDDGERFAFFSRAVLEAAKVVNVQADIVHTHDWHTAMVNYLLKEEYRKHPFYERMKSVLTIHNLQFQGIFPPDVTHDLLGLEMDHFHYERLECNGFVNFMKAGIIAADHVTTVSPTYRNEIMTPYYGEQLEQVLQYREDDVTGILNGIDDTFYQPKSDPYIEAQYDSGDLACKLENKTKLQQRMGLPEKNDIPLISMVTRLTKQKGLDLVRRIMHELLEEQDIQLVVLGTGEREFEDYFRYAEFAFHEKCRAYIGFDEPLAHQIYAGSDMFLMPSKFEPCGLGQLIALQYGAIPIVRETGGLYDTVRAYQEEEGTGNGFTFSAFNAHDLKFTIERALSFYCQQDVWKSIVKTAMNADYSWGKSAKEYQRIFEQVTRSGRDVLEEGHHHHHH | soluble |
| MVDIPPPFDLACITKKPITKSSPSLLIESDSPDKYKKKKSSFKRFLALTFKKKTENKLHVDVNVSSSRSSSESSYHGPSRILEVDRRSLSNSPQLKSRTGKLRASESPSSLIFYRDGKRKGVPFSRTVSRVESFEDRSRPPFLPLPLTKPRSISFPSADTSDYENIPAMNSDYENIQIPPRRPARAGAFTKLFEDQSRALSTANENDGYVDMSSFNAFESKQQSADQDAESAYTEPYKVCPISSAAPKEDLTSDEEQRSSEEEDSASRDPSVTHKVEGQSRALVIAQELLSSEKAYVEMLQHLNLDFHGAVMRALDDMDHEGRDTLAREELRQGLSELPAIHDLHQGILEELEERLSNWESQQKVADVFLAREQGFDHHATHILQFDRYLGLLSENCLHSPRLAAAVREFEQSVQGGSQTAKHRLLRVVQRLFQYQVLLTDYLNNLCPDSAEYDNTQGALSLISKVTDRANDSMEQGENLQKLVHIEHSVRGQGDLLQPGREFLKEGTLMKVTGKNRRPRHLFLMNDVLLYTYPQKDGKYRLKNTLAVANMKVSRPVMEKVPYALKIETSESCLMLSASSCAERDEWYGCLSRALPEDYKAQALAAFHHSVEIRERLGVSLGERPPTLVPVTHVMMCMNCGCDFSLTLRRHHCHACGKIVCRNCSRNKYPLKYLKDRMAKVCDGCFGELKKRGRAVPGLMRERPVSMSFPLSSPRFSGSAFSSVFQSINPSTFKKQKKVPSALTEVAASGEGSAISGYLSRCKRGKRHWKELWFVIKGKVLYTYMASEDKVALESMPLLGFTIAPEKEEGSSEVGPIFHLYHKKTLFYSFKAEDTNSAQRWIEAMEDASVL | soluble |
| MLCTHIKAEDCVERVPKGMFRKKQDMEDNNLFLEGNSNRGKVVKNQEIIKTFCDECDNCNKSLMCLTCGRILCGRNDSGHALHHFEETSHPVVIDCISFELYCYSCDDEVSLDFEPSLYGVLKSLKLLFDREDVMEGGDGPTIPAQPFHSRKNRISHEKSDKLRFSVKKTPIFLRNSIFLSGISENFDFSVKNGKKHQKSIFPPKKPKKSDLSAQKTSKSVFAPKQPKNSEFFNPKKHQISIFPTKNPQKFLFSVEKSIFSTINVQKCAPKKHQISIFPPKKPKNSDFPLKNPQFSFRTVTSVASTFTQKLHVAPASRNSKKKRGKKGKVSPMFVDTPPFQQQQGAAVIHDVTLSSTNSTSSGSGGATSSSEIAYRPRGMRNVGNTCFMNAVLQALASISEFREYIMSLSSLEDYIHDEKEPKNGGNYCYLTDEYRKLLISQSARSFREPTAPNEFREAFISVCPRFRGFRQHDSHEFMRYFMDSLHTEMRKCRKLPGMPDDKHTPISKYFEGTLQSSVICQTCRNCSNKIDEFMDLSLDIPAQRNASKVRLSDCLSTFFKLEMLEKGEKPECAKCKTKQTCSKQMFIRKLPQDSDEAPCTYSLQSIIVHIGYGCGSGHYIAFGKRNGRWFQFDDTVVKGVDEAHVSKQKAYVLLYTKIIRKID | not soluble |
| MIYIIQGGRAGNQLFSYAFAQRIRQIYGNEEICFVLSAIKNKAMDDCNGAYWEDSLKYFDVQDYSVSFEDNIVTKEGNLFQRFLYQFWRGSRKLNNIIFSLTGVEFSKFSLLLNRVVFNLISRFGLYIITHGFSESIKKTSFKNKFIYGSFEDNRWFSDIESKLRLEFKPKYNLNEKALQLYNELLNQNAICVSLRKWSIDVHDDSELEKREICDRNYYEKAINHIINTVEKPIFVVFSDDLEWASELMRSIIKDRYPLLVEKGDNNVAEKLFLMSTCKHFIIANSTFSWWAAYLGEFSDKIVVSPNIWFKSNKQFHPLILDDWIKINCQLEHHHHHH | not soluble |
| MSNYPLHQACMENEFFKVQELLHSKPSLLLQKDQDGRIPLHWSVSFQAHEITSFLLSKMENVNLDDYPDDSGWTPFHIACSVGNLEVVKSLYDRPLKPDLNKITNQGVTCLHLAVGKKWFEVSQFLIENGASVRIKDKFNQIPLHRAASVGSLKLIELLCGLGKSAVNWQDKQGWTPLFHALAEGHGDAAVLLVEKYGAEYDLVDNKGAKAEDVALNEQVKKFFLNNVVDKLAAALEHHHHHH | soluble |
